# According to IntAct's records for PubMed 29039417:
# B1: BBSome-interacting protein 1 (Homo sapiens), A8MTZ0 (parent)
# chain: MLKAAAKRPELSGKNTISNNSDMAEVKSMFREVLPKQGPLFVEDIMTMVLCKPKLLPLKSLTLEKLEKMHQAAQNTIRQQEMAEKDQRQITH
# partner: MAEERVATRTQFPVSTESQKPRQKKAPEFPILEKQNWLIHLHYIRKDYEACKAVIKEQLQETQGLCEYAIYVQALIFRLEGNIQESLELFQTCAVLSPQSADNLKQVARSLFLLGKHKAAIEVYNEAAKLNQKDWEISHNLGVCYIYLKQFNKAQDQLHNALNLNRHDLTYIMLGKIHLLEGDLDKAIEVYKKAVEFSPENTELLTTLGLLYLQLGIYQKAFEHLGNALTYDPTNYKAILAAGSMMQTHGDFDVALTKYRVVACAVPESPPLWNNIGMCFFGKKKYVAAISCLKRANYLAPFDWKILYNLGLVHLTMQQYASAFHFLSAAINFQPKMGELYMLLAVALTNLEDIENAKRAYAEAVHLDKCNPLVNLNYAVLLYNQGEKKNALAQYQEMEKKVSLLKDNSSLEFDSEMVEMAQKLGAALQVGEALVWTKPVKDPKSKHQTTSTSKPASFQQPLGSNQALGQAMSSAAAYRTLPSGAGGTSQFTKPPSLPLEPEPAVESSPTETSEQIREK
# B2: BBSome complex member BBS1 (Homo sapiens), Q8NFJ9 (parent)
# chain: MAAASSSDSDACGAESNEANSKWLDAHYDPMANIHTFSACLALADLHGDGEYKLVVGDLGPGGQQPRLKVLKGPLVMTESPLPALPAAAATFLMEQHEPRTPALALASGPCVYVYKNLRPYFKFSLPQLPPNPLEQDLWNQAKEDRIDPLTLKEMLESIRETAEEPLSIQSLRFLQLELSEMEAFVNQHKSNSIKRQTVITTMTTLKKNLADEDAVSCLVLGTENKELLVLDPEAFTILAKMSLPSVPVFLEVSGQFDVEFRLAAACRNGNIYILRRDSKHPKYCIELSAQPVGLIRVHKVLVVGSTQDSLHGFTHKGKKLWTVQMPAAILTMNLLEQHSRGLQAVMAGLANGEVRIYRDKALLNVIHTPDAVTSLCFGRYGREDNTLIMTTRGGGLIIKILKRTAVFVEGGSEVGPPPAQAMKLNVPRKTRLYVDQTLREREAGTAMHRAFQTDLYLLRLRAARAYLQALESSLSPLSTTAREPLKLHAVVQGLGPTFKLTLHLQNTSTTRPVLGLLVCFLYNEALYSLPRAFFKVPLLVPGLNYPLETFVESLSNKGISDIIKVLVLREGQSAPLLSAHVNMPGSEGLAAA
# partner: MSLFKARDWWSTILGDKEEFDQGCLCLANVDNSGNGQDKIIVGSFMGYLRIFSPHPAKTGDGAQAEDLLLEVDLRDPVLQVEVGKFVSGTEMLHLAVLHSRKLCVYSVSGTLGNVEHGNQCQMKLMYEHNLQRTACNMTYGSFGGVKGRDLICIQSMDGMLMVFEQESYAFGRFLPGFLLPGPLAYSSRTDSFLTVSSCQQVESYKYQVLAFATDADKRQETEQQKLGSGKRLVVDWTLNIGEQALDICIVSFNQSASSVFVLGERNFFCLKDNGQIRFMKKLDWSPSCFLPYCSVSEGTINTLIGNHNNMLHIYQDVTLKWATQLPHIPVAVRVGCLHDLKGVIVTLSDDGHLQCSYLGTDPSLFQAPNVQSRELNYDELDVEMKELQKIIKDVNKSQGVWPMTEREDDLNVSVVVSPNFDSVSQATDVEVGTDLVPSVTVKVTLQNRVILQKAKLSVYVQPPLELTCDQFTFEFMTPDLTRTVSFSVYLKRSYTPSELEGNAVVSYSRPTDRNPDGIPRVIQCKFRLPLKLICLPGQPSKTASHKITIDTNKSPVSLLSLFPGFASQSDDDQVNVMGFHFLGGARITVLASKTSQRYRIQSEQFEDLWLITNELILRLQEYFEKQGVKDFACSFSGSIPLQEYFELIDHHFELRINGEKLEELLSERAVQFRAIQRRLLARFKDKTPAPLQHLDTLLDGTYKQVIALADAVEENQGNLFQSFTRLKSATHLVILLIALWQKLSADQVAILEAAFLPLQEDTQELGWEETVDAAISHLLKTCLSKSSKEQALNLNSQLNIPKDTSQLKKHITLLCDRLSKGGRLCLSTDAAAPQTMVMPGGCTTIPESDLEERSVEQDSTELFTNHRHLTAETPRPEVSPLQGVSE
# Variants of: B1
# Details: with bbs4_human BBS4, Q96RK4
row,effect of a mutation on the interaction,Variant
1,with no effect,E84A
2,with no effect,E84K
3,with no effect,I90E
4,with no effect,I90K
5,with no effect,I90A
6,with no effect,L58K
7,with no effect,L58A
8,with no effect,L58E
9,with no effect,T76A
10,with no effect,T76K
11,with no effect,T76E
12,with no effect,E64K
13,with no effect,E64A
14,with no effect,A72K
15,disrupting interaction strength,A72D
16,with no effect,A72E
17,with no effect,L63E
18,with no effect,L63A
19,with no effect,L63K
20,with no effect,Q80A
21,with no effect,Q80K
22,with no effect,Q80E
23,with no effect,D86A
24,with no effect,D86K
25,with no effect,D86E
26,with no effect,S60A

row,effect of a mutation on the interaction,Variant
1,with no effect,S60K
2,with no effect,S60E
3,with no effect,K85E
4,with no effect,K85A
5,with no effect,K68E
6,with no effect,K68A
7,with no effect,L61A
8,with no effect,L61E
9,with no effect,L61K
10,with no effect,P57K
11,disrupting interaction strength,P57R
12,with no effect,P57A
13,with no effect,P57E
14,with no effect,A83K
15,with no effect,A83E
16,disrupting interaction strength,E67S
17,disrupting interaction strength,E67A
18,with no effect,E67K
19,with no effect,L66A
20,with no effect,L66K
21,with no effect,L66E
22,with no effect,K59A
23,with no effect,K59E
24,with no effect,A73K
25,with no effect,A73E
26,with no effect,T91A

row,effect of a mutation on the interaction,Variant
1,with no effect,T91E
2,with no effect,T91K
3,with no effect,R88A
4,with no effect,R88E
5,with no effect,R88K
6,with no effect,Q89A
7,with no effect,Q89K
8,with no effect,Q89E
9,with no effect,K65A
10,with no effect,K65E
11,with no effect,T62K
12,with no effect,T62E
13,disrupting interaction strength,T62S
14,with no effect,T62A
15,with no effect,M69E
16,with no effect,M69K
17,with no effect,M69A
18,with no effect,H70E
19,with no effect,H70K
20,disrupting interaction strength,H70T
21,with no effect,H70A
22,with no effect,M82K
23,with no effect,M82A
24,with no effect,M82E
25,with no effect,Q71A
26,with no effect,Q71K

row,effect of a mutation on the interaction,Variant
1,with no effect,Q71E
2,disrupting interaction strength,Q71R
3,with no effect,H92K
4,with no effect,H92E
5,with no effect,H92A
6,with no effect,Q87K
7,with no effect,Q87E
8,with no effect,Q87A
9,with no effect,E81A
10,with no effect,E81K
11,with no effect,Q74A
12,with no effect,Q74E
13,with no effect,Q74K
14,with no effect,L56K
15,with no effect,N75K
16,with no effect,N75A
17,with no effect,N75E
18,with no effect,Q79K
19,with no effect,Q79E
20,with no effect,Q79A
21,with no effect,I77A
22,with no effect,I77E
23,with no effect,I77K
24,with no effect,R78A
25,with no effect,R78E
26,with no effect,R78K

# Variants of: B2
# Details: with pthb1_human BBS9, Q3SYG4
row,effect of a mutation on the interaction,Variant
1,with no effect,V427K
2,with no effect,V427E
3,with no effect,V427A
4,with no effect,R429A
5,with no effect,R429E
6,with no effect,R429K
7,with no effect,Y434K
8,with no effect,Y434A
9,with no effect,Y434E
10,with no effect,G416K
11,with no effect,G416A
12,with no effect,G416E
13,with no effect,P428K
14,with no effect,P428E
15,with no effect,P428A
16,with no effect,L439A
17,with no effect,L439E
18,with no effect,Q421K
19,with no effect,Q421E
20,with no effect,Q421A
21,disrupting interaction strength,K430M
22,with no effect,K430A
23,with no effect,K430E
24,with no effect,M423E
25,with no effect,M423A
26,with no effect,M423K

row,effect of a mutation on the interaction,Variant
1,with no effect,K424E
2,with no effect,K424A
3,with no effect,P419A
4,with no effect,P419K
5,with no effect,P419E
6,with no effect,T431K
7,with no effect,T431A
8,with no effect,T431E
9,with no effect,Q437E
10,with no effect,Q437K
11,with no effect,Q437A
12,with no effect,T438A
13,with no effect,T438K
14,with no effect,T438E
15,with no effect,E414K
16,with no effect,E414A
17,with no effect,N426K
18,with no effect,N426A
19,with no effect,N426E
20,with no effect,L433E
21,with no effect,L433K
22,with no effect,L433A
23,with no effect,P417A
24,with no effect,P417E
25,with no effect,P417K
26,with no effect,A422E

row,effect of a mutation on the interaction,Variant
1,with no effect,A422K
2,with no effect,A420K
3,with no effect,A420E
4,with no effect,S413E
5,with no effect,S413K
6,with no effect,S413A
7,with no effect,R432K
8,disrupting interaction strength,R432L
9,with no effect,R432E
10,with no effect,R432A
11,with no effect,V415K
12,with no effect,V415E
13,with no effect,V415A
14,with no effect,P418K
15,with no effect,P418E
16,with no effect,P418A
17,with no effect,V435K
18,with no effect,V435A
19,disrupting interaction strength,V435L
20,with no effect,V435E
21,with no effect,D436E
22,disrupting interaction strength,D436A
23,with no effect,D436K
24,with no effect,L425A
25,with no effect,L425E
26,with no effect,L425K
